Experimental data: patent US10087225B2, “Formulation of MK2 inhibitor peptides” (MOERAE MATRIX, INC., priority 2015, dated 2018)

Columns and labels:
Assay in all cases: Kinase Profiling Assay
Format in all cases: biochemical
Conditions in all cases: for % activity: 100 μM
BRK(h) = BRK(h) (Homo sapiens, UniProt Q13882)
DCAMKL2(h) = molecular target: T1, DCAMKL2(h) (Homo sapiens, UniProt Q8N568)
T1 sequence (Q8N568 1-766): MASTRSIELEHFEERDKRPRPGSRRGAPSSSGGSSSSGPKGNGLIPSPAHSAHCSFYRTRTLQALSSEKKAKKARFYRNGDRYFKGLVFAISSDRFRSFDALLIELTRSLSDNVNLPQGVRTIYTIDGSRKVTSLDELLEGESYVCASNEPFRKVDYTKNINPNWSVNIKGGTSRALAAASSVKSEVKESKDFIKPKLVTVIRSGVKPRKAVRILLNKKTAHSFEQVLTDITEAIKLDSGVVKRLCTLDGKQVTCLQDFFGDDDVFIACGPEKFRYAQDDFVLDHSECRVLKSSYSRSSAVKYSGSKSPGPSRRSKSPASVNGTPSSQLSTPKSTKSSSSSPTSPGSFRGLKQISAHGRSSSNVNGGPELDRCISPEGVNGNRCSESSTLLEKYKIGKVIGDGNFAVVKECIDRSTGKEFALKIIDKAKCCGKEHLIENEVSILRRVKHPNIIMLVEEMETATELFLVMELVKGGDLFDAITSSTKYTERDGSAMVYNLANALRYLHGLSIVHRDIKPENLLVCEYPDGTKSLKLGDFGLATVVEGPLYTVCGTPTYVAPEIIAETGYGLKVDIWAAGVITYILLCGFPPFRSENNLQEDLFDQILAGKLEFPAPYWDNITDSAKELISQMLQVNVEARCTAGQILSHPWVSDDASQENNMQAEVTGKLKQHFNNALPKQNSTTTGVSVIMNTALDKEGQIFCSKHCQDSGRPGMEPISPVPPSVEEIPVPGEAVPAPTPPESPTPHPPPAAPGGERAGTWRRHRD

PKG1α(h) = molecular target: T2, PKG1α(h) (Homo sapiens, UniProt Q13976)
T2 sequence (Q13976 1-671): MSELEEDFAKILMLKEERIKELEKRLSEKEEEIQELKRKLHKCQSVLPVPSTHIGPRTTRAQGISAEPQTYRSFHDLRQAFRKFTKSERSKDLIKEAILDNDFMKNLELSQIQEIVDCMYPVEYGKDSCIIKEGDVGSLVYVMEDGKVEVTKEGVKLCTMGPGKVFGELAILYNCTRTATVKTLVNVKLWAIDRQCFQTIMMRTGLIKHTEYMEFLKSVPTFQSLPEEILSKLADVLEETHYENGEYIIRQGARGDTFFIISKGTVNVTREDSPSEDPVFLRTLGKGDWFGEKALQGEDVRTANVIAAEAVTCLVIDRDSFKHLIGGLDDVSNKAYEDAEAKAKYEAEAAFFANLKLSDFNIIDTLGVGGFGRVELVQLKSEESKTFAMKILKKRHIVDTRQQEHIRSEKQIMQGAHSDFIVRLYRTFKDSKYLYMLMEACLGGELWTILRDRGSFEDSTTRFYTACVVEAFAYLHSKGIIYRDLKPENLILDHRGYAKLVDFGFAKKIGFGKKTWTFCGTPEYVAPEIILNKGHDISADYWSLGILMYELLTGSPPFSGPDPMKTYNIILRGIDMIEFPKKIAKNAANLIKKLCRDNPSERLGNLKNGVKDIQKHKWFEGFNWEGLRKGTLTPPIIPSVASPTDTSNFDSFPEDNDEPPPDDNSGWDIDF

PKG1β(h) = molecular target: T3, PKG1β(h) (Homo sapiens, UniProt Q13976)
T3 sequence (Q13976 1-686 isoform Q13976-2): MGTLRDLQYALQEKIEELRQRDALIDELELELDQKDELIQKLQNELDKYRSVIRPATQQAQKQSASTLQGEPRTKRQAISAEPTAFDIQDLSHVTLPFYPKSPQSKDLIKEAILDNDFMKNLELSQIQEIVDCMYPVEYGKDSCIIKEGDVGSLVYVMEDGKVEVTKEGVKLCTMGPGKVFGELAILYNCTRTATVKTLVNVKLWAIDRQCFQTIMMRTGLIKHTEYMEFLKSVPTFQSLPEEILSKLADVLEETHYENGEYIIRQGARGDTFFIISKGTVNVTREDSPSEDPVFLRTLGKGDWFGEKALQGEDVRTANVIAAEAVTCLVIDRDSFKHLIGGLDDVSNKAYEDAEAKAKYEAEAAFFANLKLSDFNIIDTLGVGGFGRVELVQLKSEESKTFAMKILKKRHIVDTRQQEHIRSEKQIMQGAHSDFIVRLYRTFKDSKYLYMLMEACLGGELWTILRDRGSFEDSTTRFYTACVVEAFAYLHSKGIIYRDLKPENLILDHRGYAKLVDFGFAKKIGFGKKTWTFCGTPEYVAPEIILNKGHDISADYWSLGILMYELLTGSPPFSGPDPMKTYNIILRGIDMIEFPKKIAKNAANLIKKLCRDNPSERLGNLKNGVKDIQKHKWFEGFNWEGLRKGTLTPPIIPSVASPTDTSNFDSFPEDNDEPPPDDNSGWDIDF

SRPK2(h) = SRPK2(h) (Homo sapiens, UniProt P78362)
Chain of SRPK2(h) (P78362 whole entry): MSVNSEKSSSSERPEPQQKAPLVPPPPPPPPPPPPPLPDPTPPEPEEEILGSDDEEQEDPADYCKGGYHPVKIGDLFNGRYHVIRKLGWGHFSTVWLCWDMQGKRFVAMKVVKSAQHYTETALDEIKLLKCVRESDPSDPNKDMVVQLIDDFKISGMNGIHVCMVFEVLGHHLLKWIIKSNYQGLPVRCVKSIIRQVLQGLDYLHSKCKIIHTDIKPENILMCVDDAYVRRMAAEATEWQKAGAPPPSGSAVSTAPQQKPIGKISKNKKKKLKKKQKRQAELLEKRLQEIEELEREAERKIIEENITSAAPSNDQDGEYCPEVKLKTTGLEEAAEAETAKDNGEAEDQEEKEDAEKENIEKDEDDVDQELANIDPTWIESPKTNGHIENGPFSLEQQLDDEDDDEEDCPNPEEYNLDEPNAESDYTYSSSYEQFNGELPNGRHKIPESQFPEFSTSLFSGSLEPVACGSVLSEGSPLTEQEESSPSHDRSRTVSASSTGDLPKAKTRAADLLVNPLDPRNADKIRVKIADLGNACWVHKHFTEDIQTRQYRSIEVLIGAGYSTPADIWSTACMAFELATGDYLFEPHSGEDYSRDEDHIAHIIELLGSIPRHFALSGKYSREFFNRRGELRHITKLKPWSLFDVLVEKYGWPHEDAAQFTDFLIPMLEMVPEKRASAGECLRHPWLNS

Tie2(Y897S)(h) = Tie2(Y897S)(h) (Homo sapiens, UniProt Q02763, Y897S)
Chain of Tie2(Y897S)(h) (Q02763 23-1124 Y897S): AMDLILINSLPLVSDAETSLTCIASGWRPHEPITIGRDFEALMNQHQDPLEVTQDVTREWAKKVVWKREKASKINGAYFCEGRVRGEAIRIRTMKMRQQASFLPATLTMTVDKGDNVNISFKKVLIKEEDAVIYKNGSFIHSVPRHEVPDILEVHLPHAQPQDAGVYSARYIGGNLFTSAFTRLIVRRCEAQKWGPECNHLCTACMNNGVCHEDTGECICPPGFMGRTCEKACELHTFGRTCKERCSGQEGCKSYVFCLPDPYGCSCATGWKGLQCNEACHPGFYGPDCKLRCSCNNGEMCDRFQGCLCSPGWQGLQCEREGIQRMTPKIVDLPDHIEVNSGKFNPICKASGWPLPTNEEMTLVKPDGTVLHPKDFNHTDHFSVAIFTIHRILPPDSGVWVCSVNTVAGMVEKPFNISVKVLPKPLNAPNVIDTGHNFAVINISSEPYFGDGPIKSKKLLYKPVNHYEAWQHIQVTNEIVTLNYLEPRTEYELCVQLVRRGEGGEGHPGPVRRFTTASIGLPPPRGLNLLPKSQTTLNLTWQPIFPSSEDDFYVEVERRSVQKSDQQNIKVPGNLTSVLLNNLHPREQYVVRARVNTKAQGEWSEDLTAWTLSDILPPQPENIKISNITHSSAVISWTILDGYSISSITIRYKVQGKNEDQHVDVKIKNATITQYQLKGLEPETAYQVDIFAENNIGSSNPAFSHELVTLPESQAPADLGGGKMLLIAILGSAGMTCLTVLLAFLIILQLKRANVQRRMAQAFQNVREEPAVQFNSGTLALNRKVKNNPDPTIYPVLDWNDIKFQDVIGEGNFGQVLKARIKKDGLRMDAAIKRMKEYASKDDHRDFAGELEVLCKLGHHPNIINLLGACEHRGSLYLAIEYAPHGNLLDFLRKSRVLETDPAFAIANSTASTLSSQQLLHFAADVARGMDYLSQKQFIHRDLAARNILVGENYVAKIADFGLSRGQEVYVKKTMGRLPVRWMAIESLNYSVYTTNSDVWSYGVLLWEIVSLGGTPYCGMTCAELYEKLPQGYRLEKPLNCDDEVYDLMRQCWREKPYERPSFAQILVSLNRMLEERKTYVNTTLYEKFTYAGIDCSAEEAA

ZIPK(h) = ZIPK(h) (Homo sapiens, UniProt O43293)
Chain of ZIPK(h) (O43293 whole entry): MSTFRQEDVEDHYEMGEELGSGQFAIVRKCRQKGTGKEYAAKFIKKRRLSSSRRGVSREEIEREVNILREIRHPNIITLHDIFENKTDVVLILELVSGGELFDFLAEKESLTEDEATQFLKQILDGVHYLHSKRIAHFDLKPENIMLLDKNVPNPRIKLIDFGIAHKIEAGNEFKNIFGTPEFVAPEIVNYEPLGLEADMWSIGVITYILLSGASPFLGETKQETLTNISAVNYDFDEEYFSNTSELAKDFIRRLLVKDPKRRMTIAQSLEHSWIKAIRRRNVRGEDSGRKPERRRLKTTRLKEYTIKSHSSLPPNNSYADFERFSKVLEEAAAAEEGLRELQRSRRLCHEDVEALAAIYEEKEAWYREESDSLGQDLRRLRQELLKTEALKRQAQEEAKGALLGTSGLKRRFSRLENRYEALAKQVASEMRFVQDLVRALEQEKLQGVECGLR

Chain of BRK(h) (Q13882 whole entry): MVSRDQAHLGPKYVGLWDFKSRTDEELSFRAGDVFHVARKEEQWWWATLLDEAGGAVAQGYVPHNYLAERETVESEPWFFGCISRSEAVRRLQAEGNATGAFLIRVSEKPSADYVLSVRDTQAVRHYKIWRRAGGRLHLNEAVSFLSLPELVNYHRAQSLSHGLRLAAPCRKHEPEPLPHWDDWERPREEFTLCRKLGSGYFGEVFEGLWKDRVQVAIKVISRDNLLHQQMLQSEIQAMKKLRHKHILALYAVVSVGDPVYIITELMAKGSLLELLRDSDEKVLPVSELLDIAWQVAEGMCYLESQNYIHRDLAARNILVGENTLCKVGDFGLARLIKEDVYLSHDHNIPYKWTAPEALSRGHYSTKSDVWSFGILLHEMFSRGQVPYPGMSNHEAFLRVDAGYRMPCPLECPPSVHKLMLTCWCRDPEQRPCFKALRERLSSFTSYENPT

Substance | % activity (BRK(h)) [%] | % activity (DCAMKL2(h)) [%] | % activity (PKG1α(h)) [%] | % activity (PKG1β(h)) [%] | % activity (SRPK2(h)) [%] | % activity (Tie2(Y897S)(h)) [%] | % activity (ZIPK(h)) [%] | activity at 100 µM (BRK(h)) [%] | activity at 100 µM (DCAMKL2(h)) [%] | activity at 100 µM (PKG1α(h)) [%] | activity at 100 µM (PKG1β(h)) [%] | activity at 100 µM (SRPK2(h)) [%] | activity at 100 µM (Tie2(Y897S)(h)) [%] | activity at 100 µM (ZIPK(h)) [%]
HRRIKAWLKKIKALARQLGVAA (Mammalian) [MMI-0500] | 41 | 56 | 25 | 24 | 80 | 80 | 1 |  |  |  |  |  |  | 
YARAAARQARAKALNRQLGVA (Mammalian) [MMI-0200] | 127 | 131 | 70 | 57 | 100 | 85 | 67 |  |  |  |  |  |  | 
H-YARAAARQARAKALARQLGVAA-OH [MMI-0100] |  |  |  |  |  |  |  | 70 | 146 | 82 | 71 | 92 | 99 | 80
